Measurements taken from the supplement of paper PMC12042874.
± gives the uncertainty stated by the source.

Experiment: amyloid nucleation score (Sup35N fusion, yeast selection) (log enrichment); library NNK1; higher = more nucleation; inactive = no reads after selection
Procedure, shortened: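 Three technical output replicates were used for random libraries. Psi-negative yeast expressing peptides of 20 random codons fused to Sup35N were induced with 100 μM copper sulfate for 24 hours and grown 7 days at 30°C on medium lacking adenine and uracil, and input and output plasmid inserts were Illumina-sequenced, excluding sequences with under 100 input reads. The nucleation score is the DiMSum log enrichment of output over input reads, centred on the mode score of non-aggregating sequences.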

| Substance | amyloid nucleation score |
| --- | --- |
| KLVLSYRYNDG | 2.17 ± 0.18 |
| KLVTAPISKSLF | 0.55 ± 0.92 |
| KMKLRHTSCRFSREVTDVY | 0.614 ± 0.32 |
| KMLVSDTNGESSPLL | 0.124 ± 0.39 |
| KNDNAYCGWSWLLLTDSVHF | -0.836 ± 0.42 |
| KNDVASLLLGSMLKANSTCC | 0.413 ± 1.4 |
| KNFDHVKDHIVFQVL | -1.27 ± 1 |
| KNFRRYWGPSLIEIG | 1.13 ± 0.85 |
| KNKGCGGKAEYTLAPIEISM | 0.364 ± 0.55 |
| KNNVDSKHS | 0.021 ± 0.52 |
| KNVSRVCV | inactive |
| KPLILLCHLMGTMSTKCKDM | -0.098 ± 0.26 |
| KREFQCWTSACFFDISSAEL | 0.34 ± 0.79 |
| KRRGSFKVLYSHSVGLYQSF | 2.79 ± 0.14 |
| KRRVSLCMPWVGSDRRVFMG | 0.377 ± 0.31 |
| KRSRYSKR | 0.103 ± 0.48 |
| KRTHSTLHK | 0.36 ± 0.38 |
| KSCTCRNSSYRYVHINLARY | -0.253 ± 0.6 |
| KSGDMWW | 0.087 ± 0.37 |
| KSGTAFLFFKMI | 0.399 ± 0.31 |
| KSQCWRSGLVLFNA | -0.243 ± 0.36 |
| KTCWTILSVLLTLK | 0.489 ± 0.58 |
| KTGARYSLSACYLTRTDYHW | 0.056 ± 0.43 |
| KTHQLTSRTEWLYGVGVSAQ | -1.78 ± 2.4 |
| KTLFMITYFGL | 0.85 ± 0.26 |

| Substance | amyloid nucleation score |
| --- | --- |
| KTRLSWYWKITCLLHSMKFS | -0.12 ± 0.4 |
| KTRNCTNFWLQRGTW | -0.28 ± 0.76 |
| KTSFSCSIRSSYVDWGLGDS | 2.66 ± 0.12 |
| KTYRAIQLSYRIPMKMFRFD | -0.3 ± 0.25 |
| KVCLRRAAYYRVLVHSCHFR | -0.585 ± 0.43 |
| KVEVWRVLGNSVQRRFSKDQ | 0.353 ± 1.1 |
| KVIRLIFRGY | 0.871 ± 0.64 |
| KVLWMSSHLYSATSCCVKRS | 1.82 ± 0.34 |
| KWHTRENCFSFLYVYFLMFP | inactive |
| KWKVR | -0.068 ± 0.38 |
| KWTLTRLYVACRYNDHSRLS | 1.07 ± 0.39 |
| KWVEIITLCMEIWNLYIVCE | -0.048 ± 0.92 |
| KWYERLCIRATLKATLGYFT | 0.055 ± 0.69 |
| KYMFRARCKRMTFGYPG | -1.58 ± 1.4 |
| KYRSCGNGIPLIISHLLVER | 0.317 ± 0.26 |
| KYVIKCTSWVGAMTHSSSKA | 0.333 ± 0.24 |
| KYVIMLNLKSEL | 3.4 ± 0.091 |
| KYVSYQGQVDCSCKSVL | -0.182 ± 0.45 |
| KYWLMSLLAVKPSSRDSYGQ | -0.239 ± 0.28 |
| LACYDQPATSRSTAGSCPVP | 1.55 ± 0.7 |
| LAEHHWYWAEMIWSRGHEFT | 0.158 ± 0.44 |
| LAILMMCLLWTDLAKVLCPH | -0.015 ± 0.69 |
| LAPALRTETQICRRIHSVQL | 1.62 ± 0.26 |
| LAVFRCAARYYWNSFCLSRT | 0.03 ± 0.21 |
| LAWCNY | 0.765 ± 0.57 |

| Substance | amyloid nucleation score |
| --- | --- |
| LAWLFYGFEIKL | 0.241 ± 0.9 |
| LAWLQCRAGETFITWRHQFY | 0.544 ± 0.55 |
| LAWTMSQQIGETRRGAEMCT | 0.106 ± 0.33 |
| LCAFMSYLSSIFSRYNCFYV | 0.268 ± 0.19 |
| LCALG | -0.434 ± 1.2 |
| LCALVRICFPMADYEGRGGC | 2.33 ± 0.14 |
| LCCYAVYGLCLMHTYNWGCD | 0.564 ± 0.73 |
| LCDLWQHFSSSNVTGGLRRN | 0.966 ± 0.54 |
| LCITRT | -0.521 ± 0.56 |
| LCLDVLSGLCYFYLQ | 0.622 ± 0.59 |
| LCMKFSAVFWELKRV | 0.498 ± 0.52 |
| LCMNCVIQSDKRSSLLCYER | -0.636 ± 1.2 |
| LCNFDSGFGNYGLL | -0.17 ± 0.52 |
| LCNPQYM | 1.38 ± 0.69 |
| LCRMFRIVAVGYMDQRCRT | 0.479 ± 0.49 |
| LCSIKNSLMECLWYDL | -0.177 ± 0.33 |
| LDCAKTVVTGVVLGRQLCQN | 0.662 ± 0.39 |
| LDFKDSGLYLPYKGNYGSV | 0.378 ± 0.68 |
| LDGTAYVDFVVCLEGGTDVI | -0.18 ± 0.37 |
| LDGTGWYCCQYSGGLYSLCG | -0.073 ± 0.31 |
| LDILMGGGHTEDCTLPGHLS | 0.307 ± 0.36 |
| LDLGEV | 0.025 ± 0.36 |
| LDNLWYL | 0.623 ± 0.88 |
| LDRKIK | 0.651 ± 0.39 |
| LDRMFSVVRNNVTTSVLSEK | 0.234 ± 0.32 |

| Substance | amyloid nucleation score |
| --- | --- |
| LDTDFSPCRTAVLVAIMHRG | 0.415 ± 0.74 |
| LDVFPNYASRCTWAVDASFL | -0.703 ± 2.1 |
| LDVLLLLMDCSRYPKIKGGI | -0.012 ± 0.43 |
| LDVRAIRYILK | -0.252 ± 1.4 |
| LDVTSDFCTMI | 0.5 ± 0.38 |
| LDYLTTRKANVHRGCVALML | -1.27 ± 0.78 |
| LDYPISVIVPGTDQSLEFLP | inactive |
| LEDHVWKVVVYLSKNDVCMG | 0.269 ± 0.67 |
| LEGHNCADQLLSFLTSSYSL | 1.34 ± 0.44 |
| LEGSNSFNLRNLQFALRGTL | 0.069 ± 0.45 |
| LEHHCAHCIGEVTINIKRFP | 0.306 ± 0.41 |
| LELDRFDNFRYGSAPRCYLP | inactive |
| LELSKTISMPVSMNRFWVIR | -1.39 ± 1.2 |
| LESFWGSPA | 0.445 ± 1.2 |
| LFAPPYLLAVMEE | 0.97 ± 0.72 |
| LFCFNRVD | inactive |
| LFFHSKYMQRLKL | 0.183 ± 0.72 |
| LFFRIYDHCNEHEKCVV | inactive |
| LFFSYMQLVTNSTCTYLRVF | 1.24 ± 0.74 |
| LFFVPMARVW | 0.01 ± 0.54 |
| LFIRYALSFESMWL | 0.586 ± 0.52 |
| LFKSQFEFFEVGSVEDEFFR | inactive |
| LFLLEINVSSRIWPSFPKSY | 0.257 ± 0.42 |
| LFMFRLKYVIHWDIG | 0.911 ± 0.54 |
| LFMGVRTKVNGSAVI | 0.183 ± 0.17 |

| Substance | amyloid nucleation score |
| --- | --- |
| LFVGWYYYSVFSFV | inactive |
| LFVLLQHLAATFYVQVLTSR | -0.028 ± 0.89 |
| LFVNFGTLS | 0.391 ± 0.41 |
| LFVTCPHLSTQ | 1.26 ± 0.69 |
| LFWNFRRTGAGLAAGLVVGL | -0.885 ± 1.4 |
| LFYVMWWMAGVGLRRGYWAN | inactive |
| LGASGLGCIF | 4.56 ± 0.055 |
| LGCLFNAGAFWAYGGMVSLH | -0.024 ± 0.57 |
| LGCLQLITSERGPDYYKVAT | 0.218 ± 0.41 |
| LGDVSRYFCCIQGNNYRM | 5.51 ± 0.057 |
| LGFCTLFISMEDQLCVLQIL | -0.546 ± 1.2 |
| LGIVSCTSQNPNGVDTSIFG | 0.117 ± 1.4 |
| LGKRDFSGFSAKSQLFK | -0.613 ± 0.27 |
| LGQLNFLMWYPKYECRIYMG | 6.656 ± 0.058 |
| LGSNNWVFGYGR | inactive |
| LGWDDVVY | 0.314 ± 0.85 |
| LHHRSLFDCESNTAGSPRFV | -0.279 ± 0.47 |
| LHIVMLVLMASMEQTVTS | -1.11 ± 2.4 |
| LHLERALLTNRLFRS | 0.077 ± 0.49 |
| LHVRVCMYADMLSFYGSFAY | 2.68 ± 0.085 |
| LICQLGEPQFNKFHWICSLD | -0.39 ± 1.7 |
| LIDRHSFVRGRIRVSSVVVC | inactive |
| LIFLLSQSIVVMQWSGRKKQ | inactive |
| LIFMMDEVMYNGVSCFVRRE | 0.136 ± 0.69 |
| LIGRRGLHYLF | -0.186 ± 1.9 |

| Substance | amyloid nucleation score |
| --- | --- |
| LIIVRSMSNDGSIVGSQAWP | 8.152 ± 0.073 |
| LIKYFNINYNGCSAVPWGSP | 5.981 ± 0.056 |
| LILFWF | -0.5 ± 1.4 |
| LILSSCHERGSGGVFWTDHV | 0.924 ± 0.64 |
| LINFLLVTVCTSWIGISLCV | 0.358 ± 0.39 |
| LINHIS | 0.444 ± 0.9 |
| LISACDRSPSVIPI | 0.252 ± 0.37 |
| LISPVQSNTSAMVCELSDPY | 0.56 ± 0.76 |
| LITLAFVVSCVSYSRGSKRW | 1.31 ± 0.23 |
| LITLREVTYIFNWTFLNYLR | -0.305 ± 0.43 |
| LIVNRSKFLT | 0.625 ± 0.36 |
| LIVVSLGKMKLGYYFKFNVL | 0.286 ± 0.22 |
| LIWSMEALYFMDLLGG | inactive |
| LKASWRAGRATVREKGCKLA | 0.505 ± 0.38 |
| LKMEYHVGRNWSLGKSRAPE | 0.335 ± 0.92 |
| LKYANLSMRYPWVKKYCKEN | -0.301 ± 0.51 |
| LKYFYR | 0.44 ± 0.34 |
| LLCYMRGYPSCL | 0.512 ± 0.36 |
| LLDSNHSVLYFIFGLVT | 1.27 ± 0.42 |
| LLDWGFPG | -1.22 ± 1.6 |
| LLFRNYHMGDLEHLFIFYWY | 0.475 ± 0.56 |
| LLGAR | 0.272 ± 0.79 |
| LLHGGY | -1.86 ± 2.4 |
| LLLLHLWLALRGLSDCSSHV | 0.626 ± 0.87 |
| LLLRSAAESRVSLDEEARGT | 0.191 ± 0.64 |

| Substance | amyloid nucleation score |
| --- | --- |
| LLMEFI | 1.46 ± 0.84 |
| LLMNQV | 0.715 ± 0.5 |
| LLQMWMEWRVFYYHLFVSAS | 0.085 ± 0.55 |
| LLQSGGLVIRVHCSMFTVGA | -0.889 ± 0.78 |
| LLRFTCSILLRA | 0.437 ± 0.79 |
| LLSFAITCDSPVSRSVLFIR | -0.53 ± 0.58 |
| LLSTHVMQVLPMNQAKNILK | -0.935 ± 0.29 |
| LLSVF | 0.484 ± 0.74 |
| LLVCSKRSGLVSLLLVIYAF | -0.522 ± 1.4 |
| LLVESKAYGWHVMRGQTWTR | -0.045 ± 0.42 |
| LLVVIQICLM | 2.9 ± 0.14 |
| LLWTSNIIYMSFAVRNKSVR | 0.59 ± 0.32 |
| LLYFRVRSMFKGLRNETYMA | 0.411 ± 0.27 |
| LMFGRKCMLSLFPVRFHRCH | 0.378 ± 0.9 |
| LMFSIFTYNFGKNWSSKSLG | 0.303 ± 0.52 |
| LMSTVIVESVVIWGMAARVQ | 2.62 ± 0.11 |
| LMVGVSRGSGWRCGPLGEGA | 0.035 ± 0.37 |
| LMVISYRCDATGRRRVSLD | 0.867 ± 0.25 |
| LMWNLTLS | 0.949 ± 0.97 |
| LMWVSRR | 0.13 ± 0.38 |
| LMYPSGQSKRWIYRLYMGYR | inactive |
| LNCWLNRSVYVRLNRQDGKT | 2.5 ± 0.31 |
| LNHRGGLVDGFMAAGPRKFR | -0.793 ± 1 |
